{"source": "paper PMC9176643", "about": "(bioRxiv, 2022)", "binders": {"B1": {"name": "S2X324 mAb (antibody, V domains shown)", "VH": "QITLKESGPTLVKPTQTLTLTCTFSGFSVTTSGVGVGWIRQPPGKALEYLALIYWDDDKRYSTSLKSRLTITKDTSKNQVVLTMTNMDPVDTATYYCARHTIPSIFDYWGQGILVTVSS", "VL": "QPVLTQPASVSGSPGQSITISCTATSSDVGNYNYVSWYQHHPGKAPKLMIYEVSNRPSGVSNRFSGSKSGNTASLTISGLQAEDEADYYCSSYTSSSLLFGGGTKLTVL"}}, "target": "SARS-CoV Urbani RBD (SARS-CoV Urbani, UniProt P59594)", "experiment": "ELISA", "data": [{"binder": "B1", "values": [{"measurement": "binding result", "result": "no binding"}]}]}
